Assays:
[1] = flow cytometry with anti-PilA antiserum; settings: glycan lost; control: wild type NEM316
[2] = anti-PilA western, cell-wall extracts, stationary phase; settings: glycan lost; control: wild type NEM316
[3] = anti-PilA western, membrane extracts, exponential phase; settings: glycan lost; control: wild type NEM316
[4] = anti-PilA western, cell-wall extracts, exponential phase; settings: glycan lost; control: wild type NEM316
[5] = anti-PilA western, supernatants of nisin-induced secreted PilA; settings: glycan lost; control: wild-type PilAΔCWA

B1: PilA (Gbs1478), PI-2a pilus tip adhesin: N427Q (protein)
parent chain: MRKYQKFSKILTLSLFCLSQIPLNTNVLGESTVPENGAKGKLVVKKTDDQNKPLSKATFVLKTTAHPESKIEKVTAELTGEATFDNLIPGDYTLSEETAPEGYKKTNQTWQVKVESNGKTTIQNSGDKNSTIGQNHEELDKQYPPTGIYEDTKESYKLEHVKGSVPNGKSEAKAVNPYSSEGEHIREIPEGTLSKRISEVGDLAHNKYKIELTVSGKTIVKPVDKQKPLDVVFVLDNSNSMNNDGPNFQRHNKAKKAAEALGTAVKDILGANSDNRVALVTYGSDIFDGRSVDVVKGFKEDDKYYGLQTKFTIQTENYSHKQLTNNAEEIIKRIPTEAPRAKWGSTTNGLTPEQQKQYYLSKVGETFTMKAFMEADDILSQVDRNSQKIIVHITDGVPTRSYAINNFKLGASYESQFEQMKKNGYLNKSNFLLTDKPEDIKGNGESYFLFPLDSYQTQIISGNLQKLHYLDLNLNYPKGTIYRNGPVREHGTPTKLYINSLKQKNYDIFNFGIDISAFRQVYNEDYKKNQDGTFQKLKEEAFELSDGEITELMKSFSSKPEYYTPIVTSSDASNNEILSKIQQQFEKVLTKENSIVNGTIEDPMGDKINLQLGNGQTLQPSDYTLQGNDGSIMKDSIATGGPNNDGGILKGVKLEYIKNKLYVRGLNLGEGQKVTLTYDVKLDDSFISNKFYDTNGRTTLNPKSEDPNTLRDFPIPKIRDVREYPTITIKNEKKLGEIEFTKVDKDNNKLLLKGATFELQEFNEDYKLYLPIKNNNSKVVTGENGKISYKDLKDGKYQLIEAVSPKDYQKITNKPILTFEVVKGSIQNIIAVNKQISEYHEEGDKHLITNTHIPPKGIIPMTGGKGILSFILIGGSMMSIAGGIYIWKRYKKSSDISREKD
no change: expression_or_secretion [1] | stability_or_folding [2] | expression_or_secretion [3] | expression_or_secretion [4] | stability_or_folding [5]

B2: PilA (Gbs1478), PI-2a pilus tip adhesin: N597Q (protein)
parent chain: B1 parent chain
no change: expression_or_secretion [1] | stability_or_folding [2] | expression_or_secretion [3] | expression_or_secretion [4] | stability_or_folding [5]

B3: PilA (Gbs1478), PI-2a pilus tip adhesin: N427Q-N597Q (protein)
parent chain: B1 parent chain
no change: expression_or_secretion [1] | expression_or_secretion [3] | expression_or_secretion [4]
